B1: Cyclin-dependent kinase 4 inhibitor C (Homo sapiens), P42773 (parent)
chain: MAEPWGNELASAAARGDLEQLTSLLQNNVNVNAQNGFGRTALQVMKLGNPEIARRLLLRGANPDLKDRTGFAVIHDAARAGFLDTLQTLLEFQADVNIEDNEGNLPLHLAAKEGHLRVVEFLVKHTASNVGHRNHKGDTACDLARLYGRNEVVSLMQANGAGGATNLQ

From IntAct's records for PubMed 18394558 come the findings set out here.

Variants of B1 are the subject of this experiment. As to conditions: with cdk6_human CDK6, Q00534.
cdk6_human CDK6, Q00534, sequence (Q00534 whole entry): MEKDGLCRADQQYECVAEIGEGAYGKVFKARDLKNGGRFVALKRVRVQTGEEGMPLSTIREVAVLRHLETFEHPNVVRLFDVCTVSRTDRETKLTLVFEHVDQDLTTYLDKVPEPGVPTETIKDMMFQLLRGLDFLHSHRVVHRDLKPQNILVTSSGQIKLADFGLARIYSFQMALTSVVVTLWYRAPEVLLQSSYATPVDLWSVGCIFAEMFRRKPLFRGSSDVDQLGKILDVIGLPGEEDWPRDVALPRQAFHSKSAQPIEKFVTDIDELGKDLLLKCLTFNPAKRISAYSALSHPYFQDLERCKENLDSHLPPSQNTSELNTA
As to A61D, the “effect of a mutation on the interaction” value is listed as “decreasing interaction”. As for F37I, the entry is “disrupting interaction”.
